According to the nanobody polyreactivity screen of Harvey et al. (2022):

test: yeast display, Sf9 membrane polyspecificity reagent, FACS + sequencing; frameworks hold sequencing errors
Outline: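 Nanobodies came from a synthetic yeast display library in Saccharomyces cerevisiae BJ5465, induced with galactose for 36–48 hours and stained for 1 hour at 4 °C with 10% biotinylated, detergent-solubilized Sf9 membrane reagent. Cells were enriched on streptavidin microbeads and then FACS-sorted, with low and high (top ~1%) gates set on anti-HA fluorescence for expression and streptavidin fluorescence for reagent binding. Each polyreactivity label reflects the gate a clone came from. Genes were amplified by colony PCR, sequenced by MiSeq 2 × 250 and filtered by CDR length.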

| Sequence | polyreactivity (PSR sort gate) |
| --- | --- |
| QVQLVESGGGLVQAGGSLRLSCAASGSIFSFYAMGWYRQAPGKERELVADITWSGGRTYYADSVKGRFTISRDNAKNTVYLQMNSLKPEDTAVYYCNTELYLSRYKYVWSFDYWGQGTQVTVSS | low polyreactivity |
| QVQLVESGGGLVQAGGSLRLSCAASGSIFSGNAMGWYRQAPGKERELVAAITSGGSTYYADSVKGRFTISRDNAKNTVYLQMNSLKPEDTAVYYCAAVWYQYYYDRRHDYWGQGTQVTVSS | low polyreactivity |
| QVQLVESGGGLVQAGGSLRLSCAASGSIFSGNEMAWYRQAPGKERELVAAISSNGGRTYYADSVKGRFTISRDNEKNTVYLQMNSLKPEDTAVDYCAADSGKRRYGYYYWGQATQVTVSS | high polyreactivity |
| QVQLVESGGGLVQAGGSLRLSCAASGSIFSGNTMGWYRQAPGKERELVAAISGGGSTNYADSVKGRFTISRDNAKNTVYLQMNSLKPEDTAVYYCAAEPDHVADSHSGYDYWGQGTQVTVSS | low polyreactivity |
| QVQLVESGGGLVQAGGSLRLSCAASGSIFSGYAMGWYRQAPGKERELVAAISRGGSTNYADSVKGRFTISRDNAKNTVYLQMNSLKPEDTAVYYCATTPTKYHYAFGYWGQGSQVTVSS | low polyreactivity |
| QVQLVESGGGLVQAGGSLRLSCAASGSIFSGYTMGWYRQAPGKDRELVAGISYRGGSTYYADSVKGRFTISRDNAKNTVYLQMNSLKPEDTAVYYCAALYYRRGSLNYEYWGQGTQVTVSS | high polyreactivity |
| QVQLVESGGGLVQAGGSLRLSCAASGSIFSGYTMGWYRQAPGKERELVAGISYRGGSTYYADSVKGRFTNSRDNAKNTVYLQMNSLKPEDTAVYYCAALYYRRGSLNYEYWGQGTQVTVSS | high polyreactivity |
| QVQLVESGGGLVQAGGSLRLSCAASGSIFSGYVMGWYRQAPGKERELVAAINSRAGRTYYADSVKGRFTISRDNAKNTVYLQMNSLKPEDTAVYYCNAPTSFHRGGGYWGQGTQVTVSS | high polyreactivity |
| QVQLVESGGGLVQAGGSLRLSCAASGSIFSGYVMGWYRQSPGKESELDAAISYSGGSKYYADSVKGRFTISRDNAKNTVYLQMNSLKPEDTAVYFCAAPGWLSQPRYRGYDYWGQGTQVSVSS | high polyreactivity |
| QVQLVESGGGLVQAGGSLRLSCAASGSIFSHYAMGWYRQAPGKERELVARITWGGGSTYADCVKGRFTISRDNAKNTVYLQMKSLKPEDTAVYYCAAVPVGYDSDWGYYYWGQGTQVTVSS | low polyreactivity |
| QVQLVESGGGLVQAGGSLRLSCAASGSIFSINAMGWYRQAPGKERELVAAINGSGGNTYYADSVKGRFTISRDNAKNTVYLQMNSLKPEDTAVYYCAAEGYSYWSFDELDYWGQGTQVTVSS | low polyreactivity |
| QVQLVESGGGLVQAGGSLRLSCAASGSIFSKNARGWYRQAPGKERELVAAISWSGDRTYYADSVKGRFTISRDNAKNTVYLQMNSLKPEDTAVYYCAADYTVKYGYWGQGTQVTVSS | high polyreactivity |
| QVQLVESGGGLVQAGGSLRLSCAASGSIFSKYAMGWYRQAPGKERELVAAITSSGGSTYYADSVKGRFTISRDNAKNTVYLQMNSLKPEDNAVYYCAAGGRSVRYNYWGQGTQVTVSS | high polyreactivity |
| QVQLVESGGGLVQAGGSLRLSCAASGSIFSLYAMGWYRQAPGKERELVAAITWTGGSTYYADSVKGRFTISRDNAKNTVYLQMNSLKPEDTAVYYCDARRVVYRYYWYSAYDYWGRGTQVTVSS | high polyreactivity |
| QVQLVESGGGLVQAGGSLRLSCAASGSIFSNYAMGWYRQAPGKERELVAAITWSGDDTYYADSVKGRFTISRDNAKTTVYLQMNSLKPVDTAVYYCAAEYHGYRYNYYPYSHYFIYESWGQGTQVTVSS | high polyreactivity |
| QVQLVESGGGLVQAGGSLRLSCAASGSIFSPNARGWYRQAPGKEREVVAGISWSGDGTYYADSVKGRFTISRDYAKNTVYLQMNSLKPEDTAVYYCAARFGRYSHRYYYWGQGTQVTVSS | high polyreactivity |

| Sequence | polyreactivity (PSR sort gate) |
| --- | --- |
| QVQLVESGGGLVQAGGSLRLSCAASGSIFSPNDMGWYRQAPGKERELVAAITSAGSTYYADSVKGRFTISRDNAKNTVYLQMNSLKPDDTAVYYCAATYISVTDYAYFPLWYGYWGQGTQVTVSS | low polyreactivity |
| QVQLVESGGGLVQAGGSLRLSCAASGSIFSPYAMGWYRQAPGKERELVAAISFRASTTYYADSVKGRFTISRDNAKNTVYLQMNSLKPEDTAVYYCSASALYSWFWGLYDYWGQGTQVTVSS | low polyreactivity |
| QVQLVESGGGLVQAGGSLRLSCAASGSIFSPYAMGWYRQAPGKERELVAGISKSAGTTFYADSVKGRFTISRDNAKNTVYLQMNSLKPEDTAVYYCAADYYYPAWYLSDYWGQGTQVTVSS | low polyreactivity |
| QVQLVESGGGLVQAGGSLRLSCAASGSIFSQNAMGWYRQAPGKEREFVAAIRWSAGSTYYADSVKGRFTISRDNAKNTVYLQMNSLKPEDTAVYYCNAALNVSGHYPNDYWGQGTQVTVSS | low polyreactivity |
| QVQLVESGGGLVQAGGSLRLSCAASGSIFSQNAMGWYRQAPGKERELVAAITSSGGNTYADSVKGRFTISRDNAKNTVYLQMNRLKPEDTAVYYCAAGHLVILNRSEYYYWGQGTQVTVSS | low polyreactivity |
| QVQLVESGGGLVQAGGSLRLSCAASGSIFSQYAMGWYRQAPGKERELVAAITYGGGSTYYADSVKGRFTISRDNAKNTVYLQMNSLKPEDTAVYYCAAGYWNDFDWGQGTQVTVSS | low polyreactivity |
| QVQLVESGGGLVQAGGSLRLSCAASGSIFSRNAMGWYRQAPGKERELVAAITWSGGSTYYADSVKGRFTISRDNAKNTVYLQMNSLKPEDTAVYYCNAKRSSRIKQLEYDYWGQGTQVTVSS | high polyreactivity |
| QVQLVESGGGLVQAGGSLRLSCAASGSIFSRNAMGWYRQARGKERELVAAISWRGGSTYYADSVKGRFTISRDNAKNTGYLQMNSLKPEDTAVYYCAAVYQFIKWGDRYEYWGQGTQVTVSS | high polyreactivity |
| QVQLVESGGGLVQAGGSLRLSCAASGSIFSRYAMGWYIQAPGKERELVAAISTGGGRTYYADSVKGRFTISRDNAKNTVYLKMNSLKPEDTAVYYCAAPQQQSWTYDGRYGYWGQGTQVTVSS | high polyreactivity |
| QVQLVESGGGLVQAGGSLRLSCAASGSIFSRYAMGWYRQAPGKERELVAAISRRGGTTYYADSVKGRFTISRDNAKNTVYLQMNSQKPVDTAVYYCAAVFVTQSFIYDYYYWGQGTQVTVSS | high polyreactivity |
| QVQLVESGGGLVQAGGSLRLSCAASGSIFSRYAMGWYRQAPGKERELVAAITSSGGRTYYADSVKGRFTISRDNAKNTVYLQMNSLKPEDTAVYYCAAEYYYIVTYDFGYWGQGTQVTVSS | low polyreactivity |
| QVQLVESGGGLVQAGGSLRLSCAASGSIFSRYAMGWYRQAPGKEREVVADISQRAGSTYYADSVKGRFTISRDNAKITVYLQMNSLKPEDTAVYYCAKPEAQVGGYWGYDYWGQGTQVTVSS | high polyreactivity |
| QVQLVESGGGLVQAGGSLRLSCAASGSIFSSNVMGWYRQAPWKERELVAAITVRGSRTYYADSVKGRFTISRDNAKNTVYLQLNSLKPEDTAVYYCNAVARVLGSDRRLQYYYWGQGTQVTVSS | high polyreactivity |
| QVQLVESGGGLVQAGGSLRLSCAASGSIFSSYAMGWYRQAPGKERELVAAISSGDSTYYADSVKGRFTISRDNAKNTVYLQMNSLKPEDTAVYYCAAPWYAWGQGTQVTVSS | low polyreactivity |
| QVQLVESGGGLVQAGGSLRLSCAASGSIFSSYAMGWYRQAPGKERELVAAITSGGSTYYADSVKGRFTISRDNAKNTVYLQLFSLKPEDTAVYYCAARQVRTSKLHMGYWGQGTQVTVSS | low polyreactivity |
